According to a protein production outcome set (Wang et al. 2014):

Test: label from the status in PepcDB records
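Also: failed if final PepcDB status was selected cloned or expressed and not failed if soluble or beyond.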

## MSEAEAKLWQHLRAGRLNGYKFRRQQPMGNYIVDFMCVTPKLIVEADGGQHAEQAVYDHARTVYLNSLGFTVLRFWNHEILQQTNDVLAEILRVLQELEKQ
  protein production: not failed

## SKQDASRNAAYTVDCEDYVHVVEFNPFENGDSGNLIAYGGNNYVVIGTCTFQEEEADVEGIQYKTLRTFHHGVRVDGIAWSPETRLDSLPPVIKFCTSAADMKIRLFTSDLQDKNEYKVLEGHTDFINGLVFDPKEGQEIASVSDDHTCRIWNLEGVQTAHFVLHSPGMSVCWHPEETFKLMVAEKNGTIRFYDLLAQQAILSLESEQVPLMSAHWCLKNTFKVGAVAGNDWLIWDITRSSYPQNKRPVHMDRACLFRWSTISENLFATTGYPGKMASQFQIHHLGHPQPILMGSVAVGSGLSWHRTLPLCVIGGDHKLLFWVTEV
  protein production: not failed

## MERELGPWRLTFRVRGWLSDEVFGEISRYARYLGRDRGYGLFRIDPERLRGNGLTLWDAIASLEDLGVAVEEDLEALKRAAEEALRVVLELRGGWVYISSRVMLKPILEEEGLSLPYDREARAYRAPPIMYPRLREAFERRGLKVEDRVFPPSSRSLPRPVRFTGELRDYQEEALEAWRKAGGRGVIVLPTGAGKTVVAIAAVAWAGVWSLIVVYTRDHVRQWIDAFRRFTDAHSLVGAYYGEEKRLAPITVTTYQTAYRHIDRLAPLFPFLVFDEAHHIPADKFKRIASASPAPYRMGLSATIEREDGRHEEVYSLVGGVVYSSSPGELTRKGYLAPFVIRRVKVELEEEEKRLYEDLKRKYRILARGRSFEKILEDARRGDPTAIEAIRVNTRMKEIVQLSESKIRAVEKLVREELSRGSKVIVFTQYRRQAEEIARRTGALLLHGGLERRVREATLAKFRALKAGALVVTTVGDEGLDIPDANVGILVSGTGSRRQFIQRLGRLLRPGEGKRAVLYEVIARGTGEELQSRRRRGRG
  protein production: failed

## MGHHHHHHSHKPIKVEKTVTINKPADELYRYWHNFENLPTFMKHLKSVKVYNEKRSHWIANAPLGNSVEWDADILEDRENEFISWASAEGADVENSGFVRFQKAPGDVPGQAASRLRGTEVKVVLEYNLPGGALAAVVAKLFGEEPEQQIGDELRRFKM
  protein production: not failed

## RDITARVQAEENKRRLAEVVEANPDPVLFIQPGGAVTYLNPAARRTLGLGDGQAMPPLAAILSAAVLDSLQREGWDRAEHSGRWNIEARLQPPAGGASVPVSLMLLAHRAASGERFYSLVAHD
  protein production: failed

## MRRFALTVALPKGRMFREAYEVLKRAGLDLPEVEGERTLLHGKEGGVALLELRNKDVPIYVDLGIAEIGVVGKDVLLDSGRDLFEPVDLGFGACRLSLIRRPGDTGPIRRVATKYPNFTARLLKERGWAADVVELSGNIELAAVTGLADAVVDVVQTGATLRAAGLVEVEVLAHSTARLVVNRQALKLKRAVLKPLIQRLRELSGS
  protein production: not failed

## MKTEKEKREEEEEDLRPFRIHAYSKEELAMLYNPTYCISNAIYTLAAWIRHNKALKGELEKVGYNKYRRTFTPLEVKVLVKYLGEP
  protein production: failed

## MRVVRGDVARRALSIGWPLVVADSALSIAWIVDTYFVGGLGSESIAAVGAAGYLIWLYMVFSTLVYMGVLVILGQAIGSGNRGLVERAAGEGLTLSILLSIIVCAAAFAASKQLLVVLAPEVDQLAWEYLSVSLLTVALHYVTILYDAVFRALGKTMPILYSSGVFTLANTALDPILIYGRLGAPALGVEGAAWASVAASLLGLLVLVYLSRYLDVGLRPLRPTSVSRSILALGFPSMVERVVFVVGNVVYLGSVSRCGADALAAHTIGVRIESLAFLPLFSIATASGVMVGWEVGAGRIAESKSTGWELIKLSSLIGLVVGAALALGGWLVTPIFTGDPRVAWLAALYLVIAGLTEPLLGVVMVAGQIIRNAGDTRTPTLVNLGSLYILRVVPAYLLPGLMPTGLCVLGAWLAMGIDIVGRAAAIVFIYLRYYTRLARRVA
  protein production: failed

## GNPKLKDLYIRPNIVTKRMTGSLEAHSNGFRYISVRGDKVDILYNNIKSAFFQPCDGEMIILLHFHLKYAIMFGKKKHVDVQFYTEVGEITTDLG
  protein production: failed

## NYNIYDHPKAAEDRKNTVLYLMHYHKRITDKQWEDAKKIDLKANLVNRTPEERQNIDTNQDSEYNSYVNFVKSELMNNKAFKDENLGNVLQSG
  protein production: failed

## MSHWLILPILLPLFAGSLLLLPLAERWQRGLSLLAALALIPLSLLLIRTAASGDLSVYALGNWAAPFGIVLMLDRLAALMLLATAVLGSAALIYALRGEDRLGKHFHALFQFQLLGINGAFLTGDLFNLFVFFEILLIASYALLLHGGGAERVRSGLHYVILNLVGSAFFLIAVGTLYGLTGTLNMADMAQKIAMADAERAPLLAAAGLLLLVVFALKAALLPLYFWLPRAYATASAPVAALFAIMTKVGIYSILRVYTLVFGDAAGELANLAQAWLWPLALATLGLGAIGALAARTLQGLLAYLVVVSAGTLLAGVALGSERALAASLYYLLHSTWIAGGLFLLADLVARQRGDKAGDLVQGPALQNPRLLGGAFFIGAIAVAGLPPLSGFFGKVMLLQSVAPGSQALALWSVVLGSGLVALVALSRAGSTLFWRTGHTVLGSAELDHGRLFACILLLSAGPLLVFAAKPLLAYVQATAAQLHDLDLYRQIITRGGAA
  protein production: failed

## MAKRCALTFKGPMIGNHVSHANNKNKRRLLPNLRSIKIQLDDGTTKRIKVAASTLRTMRKGALEHHHHHH
  protein production: not failed

## DKCKKVYENYPVSKCQLANQCNYDCKLDKHARSGECFYDEKRNLQCICDYCEY
  protein production: not failed

## MSITERFFYLEKEPCVIYLPEKPNGFSVMLLGDYNYFIENGTSLWTQHTGRSYFLHGLIEEGYTVFSSNLYGRHWGNDQSVRLAKRLYDVVLRKETLNAKMHIMADGMGALVALEMMNKYPECIRSVIMLNPCLDLPEYVEFEKEHKFFYKRLLKELSLAYDAKEEELEA
  protein production: failed

## MDELKLYTYIAVFSTFALYFAIAWWARAGSTSDFYVAGGGITPMQNGMAIGADWMSAASFISMAGLIAFLGYGGSVFLMGWTGGYVLLAMLLAPYMRKHGKFTVPEFIFDRYYSKTARIVAVACLIIASLTYIIGQMKGVGVAFSRFLEVDYGLGLGIGMFVVWVYAVLGGMKGITYTQIAQYVVMIFAYTIPAIFISLQLTGNPIPQLGLGSTLADGSGVYLLDKLDMVVTDLGFKEYTTSNLGGTLNMFAYTISLMIGTAGLPHVIMRFFTVPSVQAARQSAGYALVFIGLLYTVAPAVGAMARLNLMNTIEPTAGQNLVYDERPQWFKDWEKTGLLKFEDKNGDGKIQYTSNATDQTVTKINTMTGKEIVVVPNEMVKVDRDIMVLANPAIANLPNWVIALVAAGGLAAALSTAAGLLLAISSSISHDLMKGVLTPDLSEKNELLAGRVVMTIAILVSGYLGLHPPGFAAGTVALAFGLAASSIFPALMMGIFSKKMSGTAAISGMVAGIGVTMMYVFQHKGIMFIPGTSFLGDMGKDWFFGISPNAFGAVGAIVNFGVAFIVLQFTGPCPANIVAMVENMRAPGDCAAAHDH
  protein production: failed

## MFENFSPSTMLAIKKYAYWLWLLLALSMPFNYWMAQDSAHPAFWAFSLVIAVFGIGPLLDMLFGRDPANPDEETQTPQLLGQGYYVLLTLATVPVLIGTLVWAAGVFVAFQEWGWLGRLGWILSMGTVMGAVGIVVAHELIHKDSALEQAAGGILLAAVCYAGFKVEHVRGHHVHVSTPEDASSARFGQSVYQFLPHAYKYNFLNAWRLEAVRLRKKGLPVFGWQNELIWWYLLSLALLVGFGWAFGWLGMVFFLGQAFVAVTLLEIINYVEHYGLHRRKGEDGRYERTNHTHSWNSNFVFTNLVLFHLQRHSDHHAFAKRPYQVLRHYDDSPQMPSGYAGMVVLALIPPLWRAVMDPKVRAYYAGEEFQLTAEQSERPAAS
  protein production: failed

## MSSAIERKSLDPSEEPVDEVLQIPPSLLTCGGCQQNIGDRYFLKAIDQYWHEDCLSCDLCGCRLGEVGRRLYYKLGRKLCRRDYLRLFGQDGLCASCDKRIRAYEMTMRVKDKVYHLECFKCAACQKHFCVGDRYLLINSDIVCEQDIYEWTKINGMI
  protein production: failed

## MKLERILPFSKTLIKQHITPESIVVDATCGNGNDTLFLAEQVPEGHVYGFDIQDLALENTRDKVKDFNHVSLIKDGHENIEHHINDAHKGHIDAAIFNLGYLPKGDKSIVTKPDTTIQAINSLLSLMSIEGIIVLVIYHGHSEGQIEKHALLDYLSTLDQKHAQVLQYQFLNQRNHAPFICAIEKIS
  protein production: failed

## MKFLTVSDDMNFLRQVNTLVAGKGDMDSVIIGEGDAKGLGSKVLYRAKKGTPFDAVSEGILKIAGNYDYIAIGSTEVGREIAGYLSFKTGFYTATEIFSLEFNGQKAHTKRFFYGGKTVIEEESDARILTVAPGVIEAKDLGTTPEIRDLEIGQSRIKITKFV
  protein production: not failed

## MAAYLERCDSVEEDYIDMEVTSFTNLVRKTLSNNYPREFEFQMSHLCPLEIDKTTSPADELFYKGKLLPLHLPPRLQMVQKILEDYTFDDEFYSTPLATGTVTTPVTSNTPFESCTVSPAESCQVSKELNPEDYFLEYSDSLEEDDEKKKSWTTKLRLMKQSSLGTKIKASRAYLRSFFGKTSCSDESSCASSAARVADEDSVLRYSRVKPFGQIKTERPKKQSNGSVSGSHRRSFSVSMRRQAAKSSNNKSSNSLGFRPLQFLKRSTSSSSEIENSIQGAILHCKQSQQQKQKQKQYSTVNEVGFCSLSASRIAARDDQEWAQMFRG
  protein production: failed

## MKIRTTLTLQYAGITAAVFFAFVIAVYYVSEHSRSNAFFRNLQSEAITKAHLFLNNQVDAKTMQSIYLNNQKFINEVEVAVYTTDFKILYHDALQNDIVKETPEMVKRILKRKNISFYVDEYQAIGLVYPFEGQYYIVTAAAYDGYGYANRDALRNMLILLFIGGLSVLAIVGYILSRSTLKPIRNIVREAEKITASHIDKRLPVKNEQDELGELSITFNALLERLEKSFNSQKMFVSNVSHELRTPMAALTAELDLALLKERTSGQYQAAIGNALQDSRRIINLIDGLLNLAKADYQSEQITMEEVRLDELLLDARELVLKAHPDYHIELVFEQEAEEDNVLTVIGNSYLLTTAFVNLVENNCKYSSNRTSSVLIAYWEQWAIIRLSDNGVGMSDADKENLFKLFYRGENKNIAPGNGIGMVLTQKIIHLHKGELTVSSHKDEGTTFVVKLPHI
  protein production: failed

## MGPFLMRILALGLVAGAALAQGVQAWLERGERLLSEGAYAEAVAAFEEVLRQDYGQFQAHLGLGVALVRLGRLEEARFAFDQMTRVFPDRYEGHFNLGQVYLRMGEAGKAAEAFAKAAAIAPREEAYLAWSGALLQEGKAREAAAVLERGLSPERSPAYRLALAQALYAAGEREAAVPHLYAALNREPGRAEAWDLLARVLAEVGLADRARREVERGLEAVQDPKGKALLLLRKGTLVEDPEPLWREALALDPDLWQAAYLLGRRRLEAGDLKEGLRWLQEAYAKGQDPEVALALAAAYLKAKDYANAYRYAKEAGPAGAFLQAQAAQGLGRRQEALKLLEGIASPQALALRGSLLLEEGQGEEAVAALQAAYEATRDPQVGVNLGAALVLVKRFGQAELVLREVLAKDPSSAAAWYNLGLALRGLGRQAEADRALRQAAALGSREARALLGR
  protein production: failed

## MNRIWLRAIILTASSALLAGCQFGGLNSLPLPGTAGHGEGAYSVTVEMADVATLPQNSPVMVDDVTVGSVAGIVAVQRPDGSFYAAVKLDLDKNVLLPANAVAKVSQTSLLGSLHVELAPPTDRPPTGRLVDGSRITEANTDRFPTTEEVFSALGVVVNKGNVGALEEIIDETHQAVAGRQAQFVNLVPRLAELTAGLNRQVHDIIDALDGLNRVSAILARDKDNLGRALDTLPDAVRVLNQNRDHIVDAFAALKRLTMVTSHVLAETKVDFGEDLKDLYSIVKALNDDRKDFVTSLQLLLTFPFPNFGIKQAVRGDYLNVFTTFDLTLRRIGETFFTTAYFDPNMAHMDEILNPPDFLIGELANLSGQAADPFKIPPGTASGQ
  protein production: failed
